Reference: patent US9988424 (DUKE UNIVERSITY, dated 2018)
Where two headings read alike, the source gives them in different places.

What was measured:
D.9009SA V1/V2 tags = test: ELISA, OD405 at 10 ug/ml
A.9004SS V1/V2 tags = biological target: T1, A.9004SS V1/V2 tags; test: ELISA, OD405 at 10 ug/ml
T1 V1V2 tags construct: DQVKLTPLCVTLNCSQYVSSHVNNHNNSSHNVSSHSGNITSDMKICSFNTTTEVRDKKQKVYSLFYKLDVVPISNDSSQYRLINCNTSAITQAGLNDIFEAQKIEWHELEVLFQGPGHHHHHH

B.Case A2 V1/V2 tags [1] = test: ELISA, OD405 at 10 ug/ml
B.63521_V1/V2 tags = test: ELISA, OD405 at 10 ug/ml
AE.A244 gD+ gp120 [2] = biological target: T2, AE.A244 gD+ gp120 (HIV-1); test: ELISA
T2 construct: domain: gp120; also called AE.A244 gp120gD+

B. 681-7 gp140C = test: ELISA, OD405
D.9009SA V1V2 Tags = biological target: T3, D.9009SA V1V2 Tags; test: ELISA, OD405
T3 Env construct: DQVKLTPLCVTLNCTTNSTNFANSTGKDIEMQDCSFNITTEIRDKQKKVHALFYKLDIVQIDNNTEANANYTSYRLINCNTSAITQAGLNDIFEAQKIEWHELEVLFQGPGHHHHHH

A.Q23 V1V2 tags [3] = biological target: A.Q23 V1V2 tags (HIV-1); test: ELISA
AE.A244 gD+ gp120 [4] = biological target: T2, AE.A244 gD+ gp120; test: ELISA; remark: listed apart in the source
B.HXB/BAL gp140CFI = biological target: T4, B.HXB/BAL gp140CFI (HIV-1, UniProt P04578 33-680); test: ELISA, OD405 at 10 ug/ml mAb
T4 construct: also called B.HxB/Ba gp140 CFI

B.Case A2 V1/V2 Tags [5] = biological target: T5, B.Case A2 V1/V2 Tags; test: ELISA, OD405 at 10 ug/ml mAb
T5 Env construct: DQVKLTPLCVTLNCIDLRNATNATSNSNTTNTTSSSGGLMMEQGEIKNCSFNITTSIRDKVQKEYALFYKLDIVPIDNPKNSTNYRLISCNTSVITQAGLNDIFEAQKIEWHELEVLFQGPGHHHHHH

A.9004SS V1V2 Tags = biological target: T6, A.9004SS V1V2 Tags; test: ELISA, OD405 at 10 ug/ml mAb
T6 Env construct: T1 V1V2 tags construct

B.63521 gp140C = test: ELISA, OD405 at 10 ug/ml mAb
B.63521_V1V2 Tags = biological target: T7, B.63521_V1V2 Tags; test: ELISA, OD405 at 10 ug/ml mAb
T7 Env construct: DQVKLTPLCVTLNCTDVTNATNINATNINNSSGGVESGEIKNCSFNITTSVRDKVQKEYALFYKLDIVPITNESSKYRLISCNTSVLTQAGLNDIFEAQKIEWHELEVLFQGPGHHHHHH

MN gp120 [6] = biological target: MN gp120 (HIV-1)
92TH023 gp120 [7] = biological target: 92TH023 gp120 (HIV-1)
[8] = biological target: T8, AE.A244 V1/V2 Tags N156QN160Q (HIV-1); test: ELISA
T8 chain: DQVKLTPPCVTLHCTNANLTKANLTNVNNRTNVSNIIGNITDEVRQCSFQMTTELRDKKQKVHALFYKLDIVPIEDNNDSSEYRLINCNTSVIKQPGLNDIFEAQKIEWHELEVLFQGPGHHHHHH

J08 C.ZM109.V1V2 [9] = biological target: J08 C.ZM109.V1V2 (HIV-1); test: SPR
1C.FD6-ZM109 = test: SPR
A.Q23 V1V2 tags [10] = biological target: A.Q23 V1V2 tags (HIV-1); test: ELISA; remark: listed apart in the source
MN gp120 [11] = biological target: MN gp120 (HIV-1); remark: listed apart in the source
92TH023 gp120 [12] = biological target: 92TH023 gp120 (HIV-1); remark: listed apart in the source
J08 A.92RW020V1V2 = J08 A.92RW020V1V2 (HIV-1); test: ELISA
J08 B.HXB2/BALV1V2 = biological target: T9, J08 B.HXB2/BALV1V2 (HIV-1); test: ELISA
T9 construct: also called J08 B.HXB/BAL V1V2
T9 chain: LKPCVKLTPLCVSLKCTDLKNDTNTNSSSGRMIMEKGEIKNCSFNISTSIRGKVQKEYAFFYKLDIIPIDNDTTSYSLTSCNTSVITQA

J08 C.ZM109.V1V2 [13] = biological target: J08 C.ZM109.V1V2 (HIV-1); test: ELISA

B1: PG9 (antibody, V domains shown)
VH: QRLVESGGGVVQPGSSLRLSCAASGFDFSRQGMHWVRQAPGQGLEWVAFIKYDGSEKYHADSVWGRLSISRDNSKDTLYLQMNSLRVEDTATYFCVREAGGPDYRNGYNYYDFYDGYYNYHYMDVWGKGTTVTVSS
VL: QSALTQPASVSGSPGQSITISCNGTSNDVGGYESVSWYQQHPGKAPKVVIYDVSKRPSGVSNRFSGSKSGNTASLTISGLQAEDEGDYYCKSLTSTRRRVFGTGTKLTVL
notes: also called mAb PG9; bnAb PG9
B1: no binding (tested: 10 ug/ml) (D.9009SA V1/V2 tags); binds (A.9004SS V1/V2 tags); binds (B.Case A2 V1/V2 tags [1]). For the same binder, the binding result (B.63521_V1/V2 tags) was “binds”, the EC50 (AE.A244 gD+ gp120 [2]) was 0.7 nM and the binding result (B. 681-7 gp140C) was “no binding (tested: 10 ug/ml)”. The binding result (D.9009SA V1V2 Tags) was “no binding (tested: 10 ug/ml)”, the EC50 (A.Q23 V1V2 tags [3]) was 14.9 nM and the EC50 (AE.A244 gD+ gp120 [4]) was 0.7 nM. B1: binds (B.HXB/BAL gp140CFI); binds (B.Case A2 V1/V2 Tags [5]); binds (A.9004SS V1V2 Tags). For the same binder, the binding result (B.63521 gp140C) was “binds”, the binding result (B.63521_V1V2 Tags) was “binds” and the IC50 (MN gp120 [6]) was 10 to 100 nM. For the same binder, the IC50 (92TH023 gp120 [7]) was 100 to 1000 nM, the binding result [8] was “no binding (tested: 100 ug/ml)” and the Kd (J08 C.ZM109.V1V2 [9]) was 318 nM. The Kd (1C.FD6-ZM109) was 4820 nM, the EC50 (A.Q23 V1V2 tags [10]) was 14.9 nM and the IC50 (MN gp120 [11]) was 10 to 100 nM. For the same binder, the IC50 (92TH023 gp120 [12]) was 100 to 1000 nM, the EC50 (J08 A.92RW020V1V2) was 64 nM and the EC50 (J08 B.HXB2/BALV1V2) was 149 nM. For the same binder, the EC50 (J08 C.ZM109.V1V2 [13]) was 0.23 nM.
